From the supplement of paper PMC7877785
± gives the uncertainty stated by the source.

Test: self-splicing fitness, log relative to wild type (ln ratio); higher = more splicing; Tetrahymena group I intron in knt gene, E. coli kanamycin selection, DiMSum; sequences stand for … in CUCUCU…GGAGGGAAAAGUUAUCAGGCAUGCACCUGGUAGCUAGUCUUUAAACCAAUAGAUUGCAUCGGUUUAAAAGGCAAGACCGUCAAAUUGCGGGAAAGGGGUCAACAGCCGUUCAGUACCAAGUCUCAGGGGAAACUUUGAGAUGGCCUUGCAAAGGGUAUGGUAAUAAGCUGACGGACAUGGUCCUAACCACGCAGCCAAGUCCUAAGUCAACAGAUCUUCUGUUGAUAUGGAUGCAGUUCACAGACUAAAUGUCGGUCGGGGAAGAUGUAUUCUUCUCAUAAGAUAUAGUCGGACCUCUCCUUAAUGGGAGCUAGCGGAUGAAGUGAUGCAACACUGGAGCCGCUGGGAACUAAUUUGUAUGCGAAAGUAUAUUGAUUAGUUUUGGAGUACUCGUGGUCG
Summary of the method: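 Fitness was computed with DiMSum as the error-weighted combination of replicate fold changes, kanamycin versus none, each normalised to wild type. The library randomised all eight intron nucleotides of the P1ex region, with the intron placed in the knt kanamycin-resistance gene on pET-22b(+) in E. coli BL21(DE3). Six replicate transformations were grown overnight at 37°C or 30°C on LB agar with or without 25 μg/mL kanamycin, plus 100 μg/mL carbenicillin, 50 μM IPTG and 0.2% rhamnose. Pooled colonies were amplicon-sequenced on an Illumina HiSeq 2500.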

## CACCAGCAAUAUUACGAGCU
30 °C
  self-splicing fitness (ln): -3.87 ± 0.16
37 °C
  self-splicing fitness (ln): -3.55 ± 0.27

## CACCAGCAAUAUUACGCACA
30 °C
  self-splicing fitness (ln): -1.23 ± 0.16
37 °C
  self-splicing fitness (ln): -0.504 ± 0.14

## CACCAGCAAUAUUACGCAGU
30 °C
  self-splicing fitness (ln): -3.61 ± 0.19
37 °C
  self-splicing fitness (ln): -2.09 ± 0.23

## CACCAGCAAUAUUACGCCCU
30 °C
  self-splicing fitness (ln): -4.12 ± 0.26
37 °C
  self-splicing fitness (ln): -0.642 ± 0.11

## CACCAGCAAUAUUACGCCUU
30 °C
  self-splicing fitness (ln): -3.62 ± 0.14
37 °C
  self-splicing fitness (ln): -1.72 ± 0.12

## CACCAGCAAUAUUACGCGAU
30 °C
  self-splicing fitness (ln): -2.55 ± 0.14
37 °C
  self-splicing fitness (ln): -2.61 ± 0.21

## CACCAGCAAUAUUACGCGUC
30 °C
  self-splicing fitness (ln): -2.87 ± 0.15
37 °C
  self-splicing fitness (ln): -0.883 ± 0.12

## CACCAGCAAUAUUACGCUGC
30 °C
  self-splicing fitness (ln): -4.19 ± 0.22
37 °C
  self-splicing fitness (ln): -2 ± 0.16

## CACCAGCAAUAUUACGCUGG
30 °C
  self-splicing fitness (ln): -5.21 ± 0.25
37 °C
  self-splicing fitness (ln): -2.41 ± 0.16

## CACCAGCAAUAUUACGCUGU
30 °C
  self-splicing fitness (ln): -3.61 ± 0.15
37 °C
  self-splicing fitness (ln): -2.63 ± 0.19

## CACCAGCAAUAUUACGGAGG
30 °C
  self-splicing fitness (ln): -1.85 ± 0.078
37 °C
  self-splicing fitness (ln): -1.4 ± 0.11

## CACCAGCAAUAUUACGGAUC
30 °C
  self-splicing fitness (ln): -1.96 ± 0.08
37 °C
  self-splicing fitness (ln): -1.32 ± 0.094

## CACCAGCAAUAUUACGGCAG
30 °C
  self-splicing fitness (ln): -0.179 ± 0.045
37 °C
  self-splicing fitness (ln): -0.218 ± 0.063

## CACCAGCAAUAUUACGGCCA
30 °C
  self-splicing fitness (ln): -0.747 ± 0.067
37 °C
  self-splicing fitness (ln): -1.22 ± 0.082

## CACCAGCAAUAUUACGGCUA
30 °C
  self-splicing fitness (ln): -1.1 ± 0.083
37 °C
  self-splicing fitness (ln): -0.202 ± 0.074

## CACCAGCAAUAUUACGGCUG
30 °C
  self-splicing fitness (ln): -3.78 ± 0.13
37 °C
  self-splicing fitness (ln): -1.29 ± 0.083

## CACCAGCAAUAUUACGUCCC
30 °C
  self-splicing fitness (ln): -4.07 ± 0.31
37 °C
  self-splicing fitness (ln): -2.79 ± 0.32

## CACCAGCAAUAUUACGUCGU
30 °C
  self-splicing fitness (ln): -3.78 ± 0.13
37 °C
  self-splicing fitness (ln): -1.83 ± 0.097

## CACCAGCAAUAUUACGUCUC
30 °C
  self-splicing fitness (ln): -2.89 ± 0.13
37 °C
  self-splicing fitness (ln): -2.38 ± 0.21

## CACCAGCAAUAUUACGUGAA
30 °C
  self-splicing fitness (ln): -4.03 ± 0.14
37 °C
  self-splicing fitness (ln): -0.875 ± 0.096

## CACCAGCAAUAUUACGUGCU
30 °C
  self-splicing fitness (ln): -3.4 ± 0.11
37 °C
  self-splicing fitness (ln): -2.7 ± 0.15

## CACCAGCAAUAUUACGUUGG
30 °C
  self-splicing fitness (ln): -4.24 ± 0.13
37 °C
  self-splicing fitness (ln): -2.74 ± 0.13

## CACCAGCAAUAUUACGUUUC
30 °C
  self-splicing fitness (ln): -4.36 ± 0.19
37 °C
  self-splicing fitness (ln): -2.58 ± 0.22

## CACGAGCAAUAUUACGAACC
37 °C
  self-splicing fitness (ln): -1.7 ± 0.32

## CACGAGCAAUAUUACGAACU
37 °C
  self-splicing fitness (ln): -1.72 ± 0.38

## CACGAGCAAUAUUACGACAC
30 °C
  self-splicing fitness (ln): -2.84 ± 0.23
37 °C
  self-splicing fitness (ln): -2.18 ± 0.3

## CACGAGCAAUAUUACGAGGA
30 °C
  self-splicing fitness (ln): -2.27 ± 0.15
37 °C
  self-splicing fitness (ln): -2.68 ± 0.16

## CACGAGCAAUAUUACGAUCC
37 °C
  self-splicing fitness (ln): -1.9 ± 0.47

## CACGAGCAAUAUUACGAUCU
37 °C
  self-splicing fitness (ln): -1.99 ± 0.27

## CACGAGCAAUAUUACGCAGU
30 °C
  self-splicing fitness (ln): -3.4 ± 0.31
37 °C
  self-splicing fitness (ln): -3.5 ± 0.37

## CACGAGCAAUAUUACGCAUG
30 °C
  self-splicing fitness (ln): -3.6 ± 0.11
37 °C
  self-splicing fitness (ln): -2.74 ± 0.15

## CACGAGCAAUAUUACGCGGC
37 °C
  self-splicing fitness (ln): -1.38 ± 0.22

## CACGAGCAAUAUUACGCGUA
30 °C
  self-splicing fitness (ln): -2.23 ± 0.12
37 °C
  self-splicing fitness (ln): -1.28 ± 0.15

## CACGAGCAAUAUUACGCUCG
30 °C
  self-splicing fitness (ln): -4.11 ± 0.39
37 °C
  self-splicing fitness (ln): -1.3 ± 0.22

## CACGAGCAAUAUUACGGCGC
37 °C
  self-splicing fitness (ln): -1.73 ± 0.4

## CACGAGCAAUAUUACGGUUG
30 °C
  self-splicing fitness (ln): -3.57 ± 0.15
37 °C
  self-splicing fitness (ln): -1.6 ± 0.12

## CACGAGCAAUAUUACGUAGA
30 °C
  self-splicing fitness (ln): -2.34 ± 0.095
37 °C
  self-splicing fitness (ln): -3.42 ± 0.29

## CACGAGCAAUAUUACGUCAU
30 °C
  self-splicing fitness (ln): -3.65 ± 0.19
37 °C
  self-splicing fitness (ln): -2.49 ± 0.21

## CACGAGCAAUAUUACGUCUU
30 °C
  self-splicing fitness (ln): -2.89 ± 0.22
37 °C
  self-splicing fitness (ln): -2.82 ± 0.24

## CACGAGCAAUAUUACGUUCA
30 °C
  self-splicing fitness (ln): -2.99 ± 0.18
37 °C
  self-splicing fitness (ln): -2.49 ± 0.24
